Measurements published in patent US20200149021, “SYSTEM AND METHOD FOR GENOME EDITING” (INSTITUTE OF ZOOLOGY, CHINESE ACADEMY OF SCIENCES, published 2020).

Experiments:
ArCpf1 = target: T1, ArCpf1 (Agathobacter rectalis); assay: cell_activity; PAM TTTC; T7EI; conditions: tags: NLS, HA (2A-eGFP vector)
T1 chain: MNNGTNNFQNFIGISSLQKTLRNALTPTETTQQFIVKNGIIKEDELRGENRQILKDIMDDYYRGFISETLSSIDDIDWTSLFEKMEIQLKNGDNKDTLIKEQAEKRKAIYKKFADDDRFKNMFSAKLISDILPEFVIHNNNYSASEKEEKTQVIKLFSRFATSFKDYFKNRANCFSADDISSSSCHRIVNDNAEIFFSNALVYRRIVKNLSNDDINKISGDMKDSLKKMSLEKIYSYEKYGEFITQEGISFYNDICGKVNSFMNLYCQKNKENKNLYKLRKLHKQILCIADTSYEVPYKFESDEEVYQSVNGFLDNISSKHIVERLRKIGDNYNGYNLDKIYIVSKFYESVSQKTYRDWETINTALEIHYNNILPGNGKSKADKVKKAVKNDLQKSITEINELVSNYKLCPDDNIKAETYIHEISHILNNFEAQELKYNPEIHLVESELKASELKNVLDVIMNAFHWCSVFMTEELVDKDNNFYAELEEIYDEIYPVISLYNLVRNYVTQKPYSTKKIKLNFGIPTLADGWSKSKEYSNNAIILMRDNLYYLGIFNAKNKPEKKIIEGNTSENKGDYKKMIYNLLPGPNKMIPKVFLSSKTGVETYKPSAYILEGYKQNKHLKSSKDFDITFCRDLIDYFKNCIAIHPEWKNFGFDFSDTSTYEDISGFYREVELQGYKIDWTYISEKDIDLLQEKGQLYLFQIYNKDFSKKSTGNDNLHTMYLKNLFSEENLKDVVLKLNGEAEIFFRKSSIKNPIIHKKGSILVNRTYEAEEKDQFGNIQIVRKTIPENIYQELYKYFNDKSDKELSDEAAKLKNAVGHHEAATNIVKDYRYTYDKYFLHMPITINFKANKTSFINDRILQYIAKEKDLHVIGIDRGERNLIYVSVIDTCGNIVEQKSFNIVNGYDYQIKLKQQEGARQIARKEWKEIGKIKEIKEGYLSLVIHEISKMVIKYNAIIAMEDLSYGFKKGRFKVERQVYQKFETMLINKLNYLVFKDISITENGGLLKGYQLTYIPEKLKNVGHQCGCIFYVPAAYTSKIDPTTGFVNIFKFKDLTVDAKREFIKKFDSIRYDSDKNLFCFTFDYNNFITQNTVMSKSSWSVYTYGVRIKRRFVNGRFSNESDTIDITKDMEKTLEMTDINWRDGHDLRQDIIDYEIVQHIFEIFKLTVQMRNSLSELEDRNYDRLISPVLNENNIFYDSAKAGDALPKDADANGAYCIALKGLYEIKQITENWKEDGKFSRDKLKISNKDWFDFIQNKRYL
Description: (§1) GFP-positive cells were sorted by FACS, lysed with Buffer L+ 1/100V Protease K (Biotool) at 55° C. for 30 min, inactivated at 95° C. for 5 min, and directly used for PCR detection. Appropriate primers were designed near the Cpf1 targeting site, and the amplified product was purified using DNA Clean & Concentrator™-5 kit (ZYMO Research). 200 ng of purified PCR product was added into 1 uL of NEBuffer2 (NEB) and diluted to 10 uL with ddH₂O. Then, heterodimers were formed by re-annealing according to the previously reported method (Li, W., et al., Simultaneous generation and germline transmission of multiple gene mutations in rat using CRISPR-Cas systems. Nat Biotechnol, 2013. 31(8): p. 684-6). The reannealed product was added with 0.3 uL of T7EI endnucelease and 1/10 V NEBuffer2 (NEB), and digested at 37° C. for 1 h 30 min. Genotype analysis was performed by 3% TAE-Gel electrophoresis. Indels were calculated according to the method reported in the previous article (Cong, L., et al., Multiplex genome engineering using CRISPR/Cas systems. Science, 2013. 339(6121): p. 819-23).
(§2) The cells were transfected with Cpf1, crRNA31, and crRNA2 plasmids, and it was confirmed by PCR and T7EI analysis that crRNA31 can increase the editing efficiency of five Cpf1s of ArCpf1, BsCpf1, HkCpf1, PrCpf1, and PxCpf1 at the site MeCP2-4 by two folds (FIG. 13B).

BsCpf1 = target: T2, BsCpf1 (Butyrivibrio sp. NC30); assay: cell_activity; PAM TTTC; T7EI; conditions: tags: HA (2A-eGFP vector)
T2 chain: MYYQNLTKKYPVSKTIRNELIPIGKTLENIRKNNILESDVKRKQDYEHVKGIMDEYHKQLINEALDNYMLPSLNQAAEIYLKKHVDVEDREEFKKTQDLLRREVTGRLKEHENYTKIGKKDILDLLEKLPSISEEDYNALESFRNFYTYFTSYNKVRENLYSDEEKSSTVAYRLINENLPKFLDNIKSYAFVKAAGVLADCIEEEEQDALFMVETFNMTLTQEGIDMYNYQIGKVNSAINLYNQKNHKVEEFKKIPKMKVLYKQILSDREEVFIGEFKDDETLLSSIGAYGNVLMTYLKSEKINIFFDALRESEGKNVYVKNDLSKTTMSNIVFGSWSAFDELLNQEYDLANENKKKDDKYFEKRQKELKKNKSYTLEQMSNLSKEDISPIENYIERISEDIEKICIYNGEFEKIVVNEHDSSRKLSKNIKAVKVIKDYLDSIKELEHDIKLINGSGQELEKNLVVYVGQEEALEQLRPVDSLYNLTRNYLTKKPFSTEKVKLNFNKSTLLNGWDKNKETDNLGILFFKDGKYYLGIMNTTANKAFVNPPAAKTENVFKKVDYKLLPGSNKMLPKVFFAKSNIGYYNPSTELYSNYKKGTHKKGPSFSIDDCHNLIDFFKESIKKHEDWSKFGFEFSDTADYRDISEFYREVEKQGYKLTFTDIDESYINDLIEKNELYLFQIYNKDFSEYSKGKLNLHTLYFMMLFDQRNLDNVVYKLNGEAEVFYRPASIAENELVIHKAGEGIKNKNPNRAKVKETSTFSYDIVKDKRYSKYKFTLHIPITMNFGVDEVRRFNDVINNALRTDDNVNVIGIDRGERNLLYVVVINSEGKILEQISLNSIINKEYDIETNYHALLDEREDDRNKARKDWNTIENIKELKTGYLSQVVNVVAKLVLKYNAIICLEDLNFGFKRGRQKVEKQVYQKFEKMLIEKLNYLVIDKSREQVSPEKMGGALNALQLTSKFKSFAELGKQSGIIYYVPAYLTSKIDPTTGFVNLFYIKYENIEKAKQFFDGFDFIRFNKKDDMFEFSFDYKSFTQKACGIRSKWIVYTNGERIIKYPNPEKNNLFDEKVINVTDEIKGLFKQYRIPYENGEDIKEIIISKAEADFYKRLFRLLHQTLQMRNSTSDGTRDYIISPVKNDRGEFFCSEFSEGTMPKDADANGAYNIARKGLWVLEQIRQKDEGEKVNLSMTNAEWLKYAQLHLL
Description: as §1, §2

B1: crRNA31 MeCP2 site 4 ; Mouse MeCP2 site 4 (ssRNA ; dsDNA)
RNA: AUUUCUACUAUGGUAGAUGUGUCCAACCUUCAGGCAAGGUG
DNA 1: TTTCGTGTCCAACCTTCAGGCAAGGTG
DNA 2: CACCTTGCCTGAAGGTTGGACACGAAA
editing efficiency (ArCpf1): ~2 fold vs crRNA2
editing efficiency (BsCpf1): ~2 fold vs crRNA2
